B1: VHH clone 1G6 (VHH)
VHH: QVQLQQSGGGLVQAGGSLRLSCAASGSIFAINEINLMGWYRQAPGKQRELVAACASDGNTYYADSVKGRFTISRDNAEKTVYLQMNNLKPDDTAVYYCDANSRGNYYSGQGTQVTVSS
B2: VHH clone 2F5 (VHH)
VHH: QVQLQQSGGGLAQTGGSLILSCAASGSIFAINEINLMGWYRQAPGKQRELVAACASDGNTYYADSVKGRFTISRDNAEKTVYLQMNNLKPDDTAVYYCDANSRGNYYSGQGTQVTVSS
B3: VHH clone 1H1 (VHH)
VHH: QVQLQESGGGLVQPGGSLRLSCAASGFTFNSYAMTWVRQAPGKGLEWVSDINSGGGSTNYADSVKGRFTISRDNAKNTLYLQMNSLKPEDTAVYYCATELRGSDYYRGPIREYAYWGQGTLVTVSS
B4: VHH clone 2H3 (VHH)
VHH: QVQLQESGGGLVQAGGSLRLSCVASGSIRSINVMGWYRQAPGKQRELVAACASDGNTYYADSVKGRFTISRDNAEKTVYLQMNNLKPDDTAVYYCDANSRGNYYSGQGTQVTVSS
B5: VHH clone 1B5 (VHH)
VHH: QVQLQESGGGLVQAGGSLRLSCVVSGATSNVNAMGWYRQAPGKERELVAAISSGGSTSYRDSVKGRFTISRDNAKNTLYLQMNSLKPEDTAMYYCAAQDWATEGYEYDYWGQGTLVTVSS
B6: VHH clone 2F3 (VHH)
VHH: QVQLQAFGGGLVQPGGSLRLSCVVSGTMFSGKDVNWLRQAPGKHVEVVATVSSDGGTDYADFVKGRFTISRDDAKNTVNLQMNSLEPEDTANYMCHFLWGRHYWGQGTQVTVSS

Here are results for six molecules from patent US20220112292A1.

By EC50 is commonly meant the concentration needed to bring the measured effect to its halfway point. A low value points to greater potency.

This assay addresses CLEC12A/CLL1 (Homo sapiens) (UniProt Q5QGZ9). Briefly: ELISA on plate coated with 1 ug/mL human CLEC12A; sdAb detected with mouse anti-myc mAb and goat anti-mouse IgG-HRP; Abs 450nm.
In turn, B1 showed an EC50 of 0.48 nM. This lies in the sub-nanomolar range.

B2 had an EC50 of 0.65 nM.

B3 had a 50% effective concentration (EC50) of 0.9 nM.

As for B4, the EC50 amounted to 0.61 nM.

B5 had an EC50 of 19.5 nM.

Molecule B6 came in with a concentration for a half-maximal effect (EC50) of 1.5 nM. Compared with the last molecule, the EC50 is about 13-fold lower.
